Measurements from patent US20080248502A1 (EISAI R AND D MANAGEMENT, published 2008).
One block for each binder: values may come before it.

Experiments:
[1] = biological target: T1, human CAR-AP chimeric protein (extracellular region of human CAR linked with human secretory placental … (human, UniProt P78310 20-237; P05187 23-511); test: cell surface binding of human CAR-AP to transfected B300 cells
T1 construct: also called human CAR-AP chimeric proteins

[2] = biological target: T2, human CARL-AP chimeric protein (extracellular region of human CARL linked with human secretory placental … (human, UniProt P05187 23-511)); test: adhesion of human CAR-expressing B300 cells to immobilized human CARL-AP
T2 construct: also called human CARL-AP chimeric proteins

[3] = biological target: T3, CAR-AP chimeric protein (extracellular region of mouse CAR linked with human secretory placental alkaline … (mouse; human, UniProt P97792 20-237; P05187 23-511); test: adhesion of transfected B300 cells to immobilized CAR-AP
T3 construct: Secreted from 293/EBNA-1 cells; also called CAR-AP chimeric proteins; immobilized CAR
T3 sequence (P97792 other isoform, or with tags, fused parts or gaps mutant): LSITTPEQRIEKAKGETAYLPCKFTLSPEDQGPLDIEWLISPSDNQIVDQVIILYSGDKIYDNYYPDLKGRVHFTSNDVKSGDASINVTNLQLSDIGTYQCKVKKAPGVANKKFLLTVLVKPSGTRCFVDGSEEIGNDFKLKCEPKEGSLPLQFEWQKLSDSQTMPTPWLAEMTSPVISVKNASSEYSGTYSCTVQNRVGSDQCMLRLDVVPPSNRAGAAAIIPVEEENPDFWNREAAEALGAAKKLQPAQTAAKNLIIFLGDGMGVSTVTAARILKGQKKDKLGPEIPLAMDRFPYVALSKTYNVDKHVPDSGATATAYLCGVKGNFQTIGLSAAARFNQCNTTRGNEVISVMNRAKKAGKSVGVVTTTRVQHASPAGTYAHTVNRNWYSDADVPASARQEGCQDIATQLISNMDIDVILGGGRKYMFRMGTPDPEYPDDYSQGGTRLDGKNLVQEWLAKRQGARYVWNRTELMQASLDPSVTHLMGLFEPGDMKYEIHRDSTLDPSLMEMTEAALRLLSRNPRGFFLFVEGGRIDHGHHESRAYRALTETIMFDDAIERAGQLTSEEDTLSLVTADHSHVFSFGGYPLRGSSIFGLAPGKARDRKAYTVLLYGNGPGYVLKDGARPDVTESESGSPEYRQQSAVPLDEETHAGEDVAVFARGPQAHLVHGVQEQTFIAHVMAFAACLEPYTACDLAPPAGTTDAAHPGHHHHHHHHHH

[4] = biological target: T4, CARL-AP chimeric protein (extracellular region of mouse CARL linked with human secretory placental alkaline … (mouse; human, UniProt P05187 23-511); test: adhesion of B300/CARL cells to immobilized AP chimeric proteins (method of Example 4, proteins applied at 10 nM)
T4 construct: also called CARL-AP proteins; chimeric protein of ENSMUSG0000048534 with AP
Procedure: Cell adhesion experiments were carried out using AP chimeric proteins to identify molecules functioning as adhesion molecules that adhere to lymphocytes. First, 50 μl of 10 μg/ml anti-alkaline phosphatase antibody (Seradyn MIA1802) was added to 96 well ELISA plates (Nunc), and allowed to stand at 37° C. for 30 minutes to immobilize the antibody. After washing the plates with PBS, the non-specifically binding sites were blocked with BlockAce (Dainippon Pharmaceutical Co.). AP chimeric proteins were diluted to a final concentration of 10 nM, added to the wells, and allowed to stand at room temperature for 30 minutes to immobilize the proteins. Activated lymphocytes were suspended in cell adhesion buffer (RPMI 1640, 0.5% BSA, and 20 mM HEPES (pH 7.4)), fluorescently labeled with Calcein-AM (Dojin), then added to wells at 1×10⁵ cells/well, and incubated at 37° C. for one hour. The non-adherent cells were washed away. A cell lysis solution (10 mM TrisHCl (pH 8.0), 1% TritonX-100) was added, then adherent cells were quantified using Wallac ARVO SX 1420 MULTILABEL COUNTER (Perkin Elmer) and measuring at an excitation wavelength of 485 nm and detection wavelength of 535 nm. The degree of cell adhesion was represented as a percentage ratio of adherent cells to added cells. […]

[5] = biological target: T3, CAR-AP chimeric protein (extracellular …); test: adhesion of CARL-expressing B300 cells to immobilized AP chimeric proteins
[6] = biological target: T3, CAR-AP chimeric protein (extracellular …); test: SPR (BIAcore X): CAR-AP captured by anti-alkaline phosphatase antibody on CM5 chip, CARL-Fc supernatant at 20, 6 or 0.6 nM
Procedure: Then, a culture supernatant comprising CAR-AP chimeric protein or control AP chimeric protein diluted to 20 nM with HBS-EP buffer (BIAcore) was added to immobilize 500 RU of AP chimeric proteins onto the sensor chip. The protein-protein interactions were measured by adding culture supernatants comprising CARL-Fc chimeric proteins diluted to 20 nM, 6 nM, or 0.6 nM with HBS-EP buffer (BIAcore) at 20 μl/min for 210 seconds.

B1: human CARL (human AMICA), full length, expressed on B300 cells (ligand)
chain: LNDLNVSPPELTVHVGDSALMGCVFQSTEDKCIFKIDWTLSPGEHAKDEYVLYYYSNLSVPIGRFQNRVHLMGDILCNDGSLLLQDVQEADQGTYICEIRLKGESQVFKKAVVLHVLPEEPKELMVHVGGLIQMGCVFQSTEVKHVTKVEWIFSGRRAKEEIVFRYYHKLRMSVEYSQSWGHFQNRVNLVGDIFRNDGSIMLQGVRESDGGNYTCSIHLGNLVFKKTIVLHVSPEEPRTLVTPAALRPLVLGGNQLVIIVGIVCATILLLPVLILIVKKTCGNKSSVNSTVLVKNTKKTNPEIKEKPCHFERCEGEKHIYSPIIVREVIEEEEPSEKSEATYMTMHPVWPSLRSDRNNSLEKKSGGGMPKTQQAF
notes: also called human CARL-expressing B300 cells; B300 cells expressing human CARL
- binding result [1]: binds

B5: mouse CARL (CAR ligand; ENSMUSG0000048534), full length, on cells (ligand)
chain: QGLPGLTVSSPQLRVHVGESVLMGCVVQRTEEKHVDRVDWLFSKDKDDASEYVLFYYSNLSVPTGRFQNRSHLVGDTFHNDGSLLLQDVQKADEGIYTCEIRLKNESMVMKKPVELWVLPEEPKDLRVRVGDTTQMRCSIQSTEEKRVTKVNWMFSSGSHTEEETVLSYDSNMRSGKFQSLGRFRNRVDLTGDISRNDGSIKLQTVKESDRGIYTCSIYVGKLESRKTIVLHVVQDEFQRTISPTPPTDKGQQGILNGNQLVIIVGIVCATFLLLPVLILIVKKAKWNKSSVSSMASVKSLENKEKINPEKHIYSSITTWETTERGISGESEGTYMTMNPVWPSSPKASSLVRSSVRSK
notes: also called CARL-expressing B300 cells; similar to AMICA (BC050133)
- binding result [4]: no binding
- binding result [5]: binds

B7: CARL-Fc chimeric protein (mouse CARL) (Fc fusion)
chain: QGLPGLTVSSPQLRVHVGESVLMGCVVQRTEEKHVDRVDWLFSKDKDDASEYVLFYYSNLSVPTGRFQNRSHLVGDTFHNDGSLLLQDVQKADEGIYTCEIRLKNESMVMKKPVELWVLPEEPKDLRVRVGDTTQMRCSIQSTEEKRVTKVNWMFSSGSHTEEETVLSYDSNMRSGKFQSLGRFRNRVDLTGDISRNDGSIKLQTVKESDRGIYTCSIYVGKLESRKTIVLHVVQDEFQRTISPTPPTDKGQQGILNGNQL
notes: The making of CARL-Fc is described nowhere; used as culture supernatant; only its extracellular region is in the construct; also called CARL-Fc chimeric proteins; not shown: Fc part: species, isotype and any linker are not described
- Kd [6]: 4.8 nM

Results, then the binder that gave them:

- binding result [2]: binds
B2: human CAR, full length, expressed on B300 cells (receptor, UniProt P78310 20-365, looked up)
chain: LSITTPEEMIEKAKGETAYLPCKFTLSPEDQGPLDIEWLISPADNQKVDQVIILYSGDKIYDDYYPDLKGRVHFTSNDLKSGDASINVTNLQLSDIGTYQCKVKKAPGVANKKIHLVVLVKPSGARCYVDGSEEIGSDFKIKCEPKEGSLPLQYEWQKLSDSQKMPTSWLAEMTSSVISVKNASSEYSGTYSCTVRNRVGSDQCLLRLNVVPPSNKAGLIAGAIIGTLLALALIGLIIFCCRKKRREEKYEKEVHHDIREDVPPPKSRTSTARSYIGSNHSSLGSMSPSNMEGYSKTQYNQVPSEDFERTPQSPTLPPAKVAAPNLSRMGAIPVMIPAQSKDGSIV
notes: whole, on cells; also called human CAR-expressing B300 cells

- binding result [3]: no binding
B3: domain 1-lacking CARL (positions 21 to 29 and 140 to 379) with FLAG tag, expressed on B300 cells (ligand)
chain: QGLPGLTVSPEEPKDLRVRVGDTTQMRCSIQSTEEKRVTKVNWMFSSGSHTEEETVLSYDSNMRSGKFQSLGRFRNRVDLTGDISRNDGSIKLQTVKESDRGIYTCSIYVGKLESRKTIVLHVVQDEFQRTISPTPPTDKGQQGILNGNQLVIIVGIVCATFLLLPVLILIVKKAKWNKSSVSSMASVKSLENKEKINPEKHIYSSITTWETTERGISGESEGTYMTMNPVWPSSPKASSLVRSSVRSK
notes: On cells; also called B300 cells expressing CARL lacking domain 1; not shown: FLAG tag from vector pMX ssFLAG MCS2.2 IRES Puro

- binding result [3]: binds
B4: domain 2-lacking CARL (positions 21 to 139 and 255 to 379) with FLAG tag, expressed on B300 cells (ligand)
chain: QGLPGLTVSSPQLRVHVGESVLMGCVVQRTEEKHVDRVDWLFSKDKDDASEYVLFYYSNLSVPTGRFQNRSHLVGDTFHNDGSLLLQDVQKADEGIYTCEIRLKNESMVMKKPVELWVLQDEFQRTISPTPPTDKGQQGILNGNQLVIIVGIVCATFLLLPVLILIVKKAKWNKSSVSSMASVKSLENKEKINPEKHIYSSITTWETTERGISGESEGTYMTMNPVWPSSPKASSLVRSSVRSK
notes: On cells; also called B300 cells expressing CARL lacking domain 2; not shown: FLAG tag from vector pMX ssFLAG MCS2.2 IRES Puro

- binding result [3]: binds
B6: full-length CARL (positions 21 to 379) with vector signal sequence and FLAG tag, expressed on B300 cells (ligand)
chain: B5 chain
notes: also called B300 cells expressing full-length CARL; not shown: FLAG tag from vector pMX ssFLAG MCS2.2 IRES Puro
